The record followed here is patent publication US20040253632A1.

Common to all, as to test: cell-based or functional assay
The target in experiment [1] is DO11.10 TCR (endogenous T cell receptor of the DO11.10 T cell hybridoma).
The target of experiment [2] is DO11.10 scTCR/murine CD3ζ fusion molecule (membrane-bound, on transfected cells) (mouse) (UniProt P24161).
The target in experiment [3] is DO11.10 TCR (endogenous T cell receptor of the DO11.10 T cell hybridoma). This is another data set of the same source.
Experiment [4] deals with 2B4 TCR (endogenous T cell receptor of the 2B4 T cell hybridoma) (mouse).

Like-named read-outs stand apart in the source and are kept apart here.

Sequence of UniProt P24161 (P24161 whole entry, the tested form may be a part): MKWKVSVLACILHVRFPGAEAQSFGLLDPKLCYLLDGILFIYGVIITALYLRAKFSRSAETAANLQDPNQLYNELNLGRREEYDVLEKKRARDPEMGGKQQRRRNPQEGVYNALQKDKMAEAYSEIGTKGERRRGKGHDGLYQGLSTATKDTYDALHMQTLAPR

As for “scIA^d/OVA-IgM fusion (scIA^d/OVA fused to CH2-CH3-CH4 of human IgM heavy chain), multi-valent (from UniProt P01871 106-453) (peptide-MHC)”, in experiment [1], the IL-2 ELISA value; DO11.10 T cells; 1 ng complex/well was determined as 0.268 A405, the IL-2 ELISA value; DO11.10 T cells; 3 ng complex/well amounted to 0.529 A405, the IL-2 ELISA value; DO11.10 T cells; 7 ng complex/well was 0.838 A405 and the IL-2 ELISA value; DO11.10 T cells; 15 ng complex/well was 1.18 A405. In addition, in experiment [1], the IL-2 ELISA value; DO11.10 T cells; 31 ng complex/well was 1.42 A405, the IL-2 ELISA value; DO11.10 T cells; 62 ng complex/well was 1.33 A405, the IL-2 ELISA value; DO11.10 T cells; 125 ng complex/well was found to be 1.61 A405 and the IL-2 ELISA value; DO11.10 T cells; 250 ng complex/well was 1.48 A405. In experiment [2], this substance gave an IL-2 ELISA value; BWDZ:CD4+ transfectants; 40 ng complex/well of 0.305 A405, an IL-2 ELISA value; BWDZ:CD4+ transfectants; 200 ng complex/well of 0.34 A405, an IL-2 ELISA value; BWDZ:CD4+ transfectants; 1000 ng complex/well of 1.28 A405 and an IL-2 ELISA value; DO11.10 scTCR 2B4 transfectants; 1 ng complex/well of 0.214 A405. In experiment [2], this substance yielded an IL-2 ELISA value; DO11.10 scTCR 2B4 transfectants; 3 ng complex/well of 0.234 A405, an IL-2 ELISA value; DO11.10 scTCR 2B4 transfectants; 7 ng complex/well of 0.264 A405, an IL-2 ELISA value; DO11.10 scTCR 2B4 transfectants; 15 ng complex/well of 0.273 A405 and an IL-2 ELISA value; DO11.10 scTCR 2B4 transfectants; 31 ng complex/well of 1.32 A405. In experiment [2], this substance gave an IL-2 ELISA value; DO11.10 scTCR 2B4 transfectants; 62 ng complex/well of 1.82 A405, an IL-2 ELISA value; DO11.10 scTCR 2B4 transfectants; 125 ng complex/well of 2.33 A405 and an IL-2 ELISA value; DO11.10 scTCR 2B4 transfectants; 250 ng complex/well of 2.27 A405. In experiment [3], the IL-2 ELISA value; DO11.10 T cells; 0.3 ng complex/well was determined as 0.192 A405, the IL-2 ELISA value; DO11.10 T cells; 1 ng complex/well is 0.195 A405, the IL-2 ELISA value; DO11.10 T cells; 4 ng complex/well is 0.23 A405 and the IL-2 ELISA value; DO11.10 T cells; 11 ng complex/well came out at 0.601 A405. Besides, in experiment [3], the IL-2 ELISA value; DO11.10 T cells; 33 ng complex/well amounted to 1.64 A405, the IL-2 ELISA value; DO11.10 T cells; 100 ng complex/well was 1.7 A405 and the IL-2 ELISA value; DO11.10 T cells; 300 ng complex/well was 0.853 A405.
Turning to “single-chain IE^k linked to PCC 88-104 (scIE^k/PCC) (peptide-MHC)”, in experiment [4], the IL-2 ELISA absorbance; 2B4 T cells; 12.5 ng/well immobilized scIE^k/PCC turned out to be 0.054 A450, the IL-2 ELISA absorbance; 2B4 T cells; 25 ng/well immobilized scIE^k/PCC came out at 0.081 A450, the IL-2 ELISA absorbance; 2B4 T cells; 50 ng/well immobilized scIE^k/PCC was 0.234 A450 and the IL-2 ELISA absorbance; 2B4 T cells; 100 ng/well immobilized scIE^k/PCC worked out at 0.413 A450. In experiment [4], the IL-2 ELISA absorbance; 2B4 T cells; 200 ng/well immobilized scIE^k/PCC worked out at 0.485 A450 and the IL-2 ELISA absorbance; 2B4 T cells; 400 ng/well immobilized scIE^k/PCC is 0.216 A450.
For the substance “single-chain IA^d linked to HSV-1 glycoprotein D peptide GD 246-261 (scIA^d/GD), monovalent (peptide-MHC)”, in experiment [1], the IL-2 ELISA value; DO11.10 T cells; 7 ng complex/well is 0.163 A405, the IL-2 ELISA value; DO11.10 T cells; 15 ng complex/well is 0.152 A405, the IL-2 ELISA value; DO11.10 T cells; 31 ng complex/well is 0.213 A405 and the IL-2 ELISA value; DO11.10 T cells; 62 ng complex/well was determined as 0.164 A405. In experiment [1], the IL-2 ELISA value; DO11.10 T cells; 125 ng complex/well was 0.179 A405 and the IL-2 ELISA value; DO11.10 T cells; 250 ng complex/well stood at 0.18 A405. In addition, in experiment [2], the IL-2 ELISA value; DO11.10 scTCR 2B4 transfectants; 7 ng complex/well was 0.163 A405, the IL-2 ELISA value; DO11.10 scTCR 2B4 transfectants; 15 ng complex/well was found to be 0.152 A405, the IL-2 ELISA value; DO11.10 scTCR 2B4 transfectants; 31 ng complex/well is 0.213 A405 and the IL-2 ELISA value; DO11.10 scTCR 2B4 transfectants; 62 ng complex/well was found to be 0.164 A405. In experiment [2], this substance showed an IL-2 ELISA value; DO11.10 scTCR 2B4 transfectants; 125 ng complex/well of 0.179 A405 and an IL-2 ELISA value; DO11.10 scTCR 2B4 transfectants; 250 ng complex/well of 0.227 A405. In addition, in experiment [3], the IL-2 ELISA value; DO11.10 T cells; 100 ng complex/well came to 0.152 A405.
In experiment [1], “scIA^d/GD-IgM fusion (scIA^d/GD fused to CH2-CH3-CH4 of human IgM heavy chain), multi-valent (from UniProt P01871 106-453) (peptide-MHC)” displayed an IL-2 ELISA value; DO11.10 T cells; 1 ng complex/well of 0.153 A405, an IL-2 ELISA value; DO11.10 T cells; 3 ng complex/well of 0.14 A405, an IL-2 ELISA value; DO11.10 T cells; 7 ng complex/well of 0.148 A405 and an IL-2 ELISA value; DO11.10 T cells; 15 ng complex/well of 0.14 A405. In addition, in experiment [1], the IL-2 ELISA value; DO11.10 T cells; 31 ng complex/well is 0.165 A405, the IL-2 ELISA value; DO11.10 T cells; 62 ng complex/well came out at 0.157 A405, the IL-2 ELISA value; DO11.10 T cells; 125 ng complex/well was found to be 0.18 A405 and the IL-2 ELISA value; DO11.10 T cells; 250 ng complex/well turned out to be 0.193 A405. In experiment [2], the IL-2 ELISA value; BWDZ:CD4+ transfectants; 40 ng complex/well amounted to 0.282 A405, the IL-2 ELISA value; BWDZ:CD4+ transfectants; 200 ng complex/well came to 0.309 A405, the IL-2 ELISA value; BWDZ:CD4+ transfectants; 1000 ng complex/well came out at 0.375 A405 and the IL-2 ELISA value; DO11.10 scTCR 2B4 transfectants; 1 ng complex/well worked out at 0.196 A405. Besides, in experiment [2], the IL-2 ELISA value; DO11.10 scTCR 2B4 transfectants; 3 ng complex/well is 0.19 A405, the IL-2 ELISA value; DO11.10 scTCR 2B4 transfectants; 7 ng complex/well was 0.213 A405, the IL-2 ELISA value; DO11.10 scTCR 2B4 transfectants; 15 ng complex/well was determined as 0.199 A405 and the IL-2 ELISA value; DO11.10 scTCR 2B4 transfectants; 31 ng complex/well came out at 0.226 A405. In experiment [2], this substance displayed an IL-2 ELISA value; DO11.10 scTCR 2B4 transfectants; 62 ng complex/well of 0.224 A405, an IL-2 ELISA value; DO11.10 scTCR 2B4 transfectants; 125 ng complex/well of 0.233 A405 and an IL-2 ELISA value; DO11.10 scTCR 2B4 transfectants; 250 ng complex/well of 0.224 A405. In experiment [3], this substance displayed an IL-2 ELISA value; DO11.10 T cells; 0.3 ng complex/well of 0.189 A405, an IL-2 ELISA value; DO11.10 T cells; 1 ng complex/well of 0.184 A405, an IL-2 ELISA value; DO11.10 T cells; 4 ng complex/well of 0.179 A405 and an IL-2 ELISA value; DO11.10 T cells; 11 ng complex/well of 0.188 A405. In experiment [3], this substance showed an IL-2 ELISA value; DO11.10 T cells; 33 ng complex/well of 0.206 A405, an IL-2 ELISA value; DO11.10 T cells; 100 ng complex/well of 0.221 A405 and an IL-2 ELISA value; DO11.10 T cells; 300 ng complex/well of 0.248 A405.
On to “scIA^d/OVA-IgG multimer (scIA^d/OVA-Cκ fusion with scIA^d/OVA-IgG2b heavy chain fusion) (peptide-MHC)”, for which, in experiment [3], the IL-2 ELISA value; DO11.10 T cells; 12.5 ng complex/well was 0.184 A405, the IL-2 ELISA value; DO11.10 T cells; 25 ng complex/well came to 0.758 A405, the IL-2 ELISA value; DO11.10 T cells; 50 ng complex/well turned out to be 2.11 A405 and the IL-2 ELISA value; DO11.10 T cells; 100 ng complex/well was found to be 2.9 A405.
